Test results published in the supplement of paper PMC6757056.
± gives the standard deviation of the averaged measurements.

B1: library; a variant is named by its letters at N, in order (parent)
chain: GCUGUCACCGAGAAACUGUGAAGUAUAUCUUAAACCUGGGCACUUAAAAGAUAUAUGGAGUUAGUAGUGCAACCUGCUCGGUCUGAUGAGUCCNNNNNNGGACGAAACAGC

What was measured:
cyclic di-GMP [1] = variants of: B1; assay: normalized RNA/DNA level without ligand (relative to sTRSVctl = 100) (log10 (% of sTRSVctl)); HEK293T; ligand: cyclic di-GMP (c-di-GMP-II aptamer); higher = less ribozyme self-cleavage, higher mRNA level; details: reporter: mCherry (pCS4076), ligand present: no
How it was run: (§1)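 For each 6-well well, 4 µg of library plasmid encoding mCherry-linked ribozyme switches, or eGFP-linked ones in some ligand experiments, was transfected into HEK293T. Any ligand was added 1 h before transfection, and RNA was extracted with EDTA 72 h after it, then reverse-transcribed, amplified, barcoded and sequenced. RNA level was obtained by dividing RNA reads by DNA reads, normalizing to a spiked-in non-cleaving sequence or to the top sequences, then scaling and log-transforming. The top set was 25 sequences, scaling was ×100 with log10, and ≥100 DNA reads were required.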

cyclic di-GMP [2] = variants of: B1; assay: normalized RNA/DNA level with ligand (relative to sTRSVctl = 100) (log10 (% of sTRSVctl)); HEK293T; ligand: cyclic di-GMP (c-di-GMP-II aptamer); ligand concentration (+) RNA-Seq: 1 mM; higher = less ribozyme self-cleavage, higher mRNA level; details: reporter: mCherry (pCS4076), ligand present: yes
How it was run: as §1

Variant | normalized RNA/DNA level without ligand (log10) (cyclic di-GMP [1]) | normalized RNA/DNA level with ligand (log10) (cyclic di-GMP [2])
GGGCAC | 1.78 ± 0.042 | 1.89 ± 0.074
CGGUCG | 1.78 ± 0.042 | 1.9 ± 0.13
CGGUCU | 1.56 ± 0.064 | 1.72 ± 0.11
CGGAUC | 1.63 ± 0.036 | 1.72 ± 0.15
CGGAUG | 1.64 ± 0.057 | 1.77 ± 0.17
AGGGCG | 1.78 ± 0.0082 | 1.84 ± 0.11
AGGGCC | 1.84 ± 0.052 | 1.93 ± 0.068
AGGGCU | 1.69 ± 0.034 | 1.85 ± 0.088
AGGGCA | 1.756 ± 0.017 | 1.81 ± 0.048
GGGGCA | 1.752 ± 0.011 | 1.88 ± 0.081
GGGGCC | 1.85 ± 0.069 | 1.94 ± 0.13
AGGCGG | 1.79 ± 0.026 | 1.88 ± 0.063
AGGCGC | 1.74 ± 0.075 | 1.86 ± 0.088
AGGCGU | 1.609 ± 0.0044 | 1.76 ± 0.12
AGGCGA | 1.56 ± 0.037 | 1.67 ± 0.13
CGCGGG | 1.67 ± 0.1 | 1.87 ± 0.047
CGCGGA | 1.446 ± 0.0059 | 1.62 ± 0.089
CGCGGU | 1.67 ± 0.02 | 1.87 ± 0.13
CGCGGC | 1.74 ± 0.03 | 1.87 ± 0.11
AGGGUG | 1.64 ± 0.046 | 1.7 ± 0.12
AGGGUA | 1.53 ± 0.035 | 1.6 ± 0.12
AGGGUC | 1.71 ± 0.07 | 1.85 ± 0.18
AGGGUU | 1.6902 ± 0.0014 | 1.77 ± 0.056
AGGGAU | 1.54 ± 0.084 | 1.74 ± 0.086
AGGGAA | 1.41 ± 0.11 | 1.53 ± 0.061
AGGGAC | 1.55 ± 0.12 | 1.7 ± 0.16
AGGACG | 1.589 ± 0.0076 | 1.7 ± 0.1
AGGACU | 1.66 ± 0.014 | 1.82 ± 0.088
GGGAUA | 1.54 ± 0.19 | 1.66 ± 0.044
